In FireProtDB (doi:10.1074/jbc.m110728200):

B1: Lysozyme C, P61626 (parent)
chain: MKALIVLGLVLLSVTVQGKVFERCELARTLKRLGMDGYRGISLANWMCLAKWESGYNTRATNYNAGDRSTDYGIFQINSRYWCNDGKTPGAVNACHLSCSALLQDNIADAVACAKRVVRDPQGIRAWVAWRNRCQNRDVRQYVQGCGV

Variants of: B1
Settings: Homo sapiens; pH 2.64; Thermal; DSC; Gly-HCl 0.05 M; structure 1LZ1; whole UniProt chain shown

Variant | Tm [°C] | unfolding enthalpy (calorimetric) [kcal/mol] | unfolding enthalpy (van 't Hoff) [kcal/mol]
MKALIVLGLVLLSVTVQGKVFERCELARTLKRLGMDGYRGISLANWMCLAKWESGYNTRATNYNAGDRSTDYGIFQINSRYWCNDGKTPGAVNACHLSCSALLQDNIADAVACAKRVVRDPQGIRAWNAWRNRCQNRDVRQYVQGCGV | 64 | 108 | 109

Same assay, conditions: Homo sapiens; pH 2.7; Thermal; DSC; Gly-HCl 0.05 M; structure 1LZ1; whole UniProt chain shown

Variant | Tm [°C] | change of melting temperature, mutant - wild type (higher = more stable) [°C] | heat capacity change of unfolding [kcal/mol/K] | unfolding enthalpy (calorimetric) [kcal/mol]
MKALIVLGLVLLSVTVQGKVFERCELARTLKRLGMDGYRGISLANWMCLAKWESGYNTRATNYNAGDRSTDYGIFQINSRYWCNDGKTPGAVNACHLSCSALLQDNIADAVACAKRVVRDPQGIRAWNAWRNRCQNRDVRQYVQGCGV | 65.1 | 0.2 |  | 
MKALIVLGLVLLSVTVQGKVFERCELARTLKRLGMDGYRGISLANWMCLAKWESGYNTRATNYNAGDRSTDYGIFQINSRYWCNDGKTPGAVNACHLSCSALLQDNIADAVACAKRVVRDPQGIRAWDAWRNRCQNRDVRQYVQGCGV | 65.4 | 0.5 |  | 
MKALIVLGLVLLSVTVQGKVFERCELARTLKRLGMDGYRGISLANWMCLAKWESGYNTRATNYNAGDRSTDYGIFQINSRYWCNDGKTPGASNACHLSCSALLQDNIADAVACAKRVVRDPQGIRAWVAWRNRCQNRDVRQYVQGCGV | 64.9 | 0 | 1.22 | 108
MKALIVLGLVLLSVTVQGKVFERCELARTLKRLGMDGYRGISLANWMCLAKWESGYNTRATNYNAGDRSTDYGIFQINSRYWCNDGKTPGANNACHLSCSALLQDNIADAVACAKRVVRDPQGIRAWVAWRNRCQNRDVRQYVQGCGV | 63.9 | -1 |  | 

Same assay, conditions: Homo sapiens; pH 2.83; Thermal; DSC; Gly-HCl 0.05 M; structure 1LZ1; whole UniProt chain shown

Variant | Tm [°C] | unfolding enthalpy (calorimetric) [kcal/mol] | unfolding enthalpy (van 't Hoff) [kcal/mol]
MKALIVLGLVLLSVTVQGKVFERCELARTLKRLGMDGYRGISLANWMCLAKWESGYNTRATNYNAGDRSTDYGIFQINSRYWCNDGKTPGAVNACHLSCSALLQDNIADAVACAKRVVRDPQGIRAWNAWRNRCQNRDVRQYVQGCGV | 67.2 | 113 | 115
MKALIVLGLVLLSVTVQGKVFERCELARTLKRLGMDGYRGISLANWMCLAKWESGYNTRATNYNAGDRSTDYGIFQINSRYWCNDGKTPGASNACHLSCSALLQDNIADAVACAKRVVRDPQGIRAWVAWRNRCQNRDVRQYVQGCGV | 66 | 109 | 115

Same assay, conditions: Homo sapiens; pH 3.04; Thermal; DSC; Gly-HCl 0.05 M; structure 1LZ1; whole UniProt chain shown

Variant | Tm [°C] | unfolding enthalpy (calorimetric) [kcal/mol] | unfolding enthalpy (van 't Hoff) [kcal/mol]
MKALIVLGLVLLSVTVQGKVFERCELARTLKRLGMDGYRGISLANWMCLAKWESGYNTRATNYNAGDRSTDYGIFQINSRYWCNDGKTPGAVNACHLSCSALLQDNIADAVACAKRVVRDPQGIRAWNAWRNRCQNRDVRQYVQGCGV | 70.6 | 118 | 118

Same assay, conditions: Homo sapiens; pH 3.13; Thermal; DSC; Gly-HCl 0.05 M; structure 1LZ1; whole UniProt chain shown

Variant | Tm [°C] | unfolding enthalpy (calorimetric) [kcal/mol] | unfolding enthalpy (van 't Hoff) [kcal/mol]
MKALIVLGLVLLSVTVQGKVFERCELARTLKRLGMDGYRGISLANWMCLAKWESGYNTRATNYNAGDRSTDYGIFQINSRYWCNDGKTPGAVNACHLSCSALLQDNIADAVACAKRVVRDPQGIRAWNAWRNRCQNRDVRQYVQGCGV | 71.7 | 120 | 122

Same assay, conditions: Homo sapiens; pH 2.63; Thermal; DSC; Gly-HCl 0.05 M; structure 1LZ1; whole UniProt chain shown

Variant | Tm [°C] | unfolding enthalpy (calorimetric) [kcal/mol] | unfolding enthalpy (van 't Hoff) [kcal/mol]
MKALIVLGLVLLSVTVQGKVFERCELARTLKRLGMDGYRGISLANWMCLAKWESGYNTRATNYNAGDRSTDYGIFQINSRYWCNDGKTPGAVNACHLSCSALLQDNIADAVACAKRVVRDPQGIRAWDAWRNRCQNRDVRQYVQGCGV | 63.9 | 90.3 | 108

Same assay, conditions: Homo sapiens; pH 2.84; Thermal; DSC; Gly-HCl 0.05 M; structure 1LZ1; whole UniProt chain shown

Variant | Tm [°C] | unfolding enthalpy (calorimetric) [kcal/mol] | unfolding enthalpy (van 't Hoff) [kcal/mol]
MKALIVLGLVLLSVTVQGKVFERCELARTLKRLGMDGYRGISLANWMCLAKWESGYNTRATNYNAGDRSTDYGIFQINSRYWCNDGKTPGAVNACHLSCSALLQDNIADAVACAKRVVRDPQGIRAWDAWRNRCQNRDVRQYVQGCGV | 67.9 | 96.8 | 112
MKALIVLGLVLLSVTVQGKVFERCELARTLKRLGMDGYRGISLANWMCLAKWESGYNTRATNYNAGDRSTDYGIFQINSRYWCNDGKTPGANNACHLSCSALLQDNIADAVACAKRVVRDPQGIRAWVAWRNRCQNRDVRQYVQGCGV | 66.2 | 114 | 116

Same assay, conditions: Homo sapiens; pH 3; Thermal; DSC; Gly-HCl 0.05 M; structure 1LZ1; whole UniProt chain shown

Variant | Tm [°C] | unfolding enthalpy (calorimetric) [kcal/mol] | unfolding enthalpy (van 't Hoff) [kcal/mol]
MKALIVLGLVLLSVTVQGKVFERCELARTLKRLGMDGYRGISLANWMCLAKWESGYNTRATNYNAGDRSTDYGIFQINSRYWCNDGKTPGAVNACHLSCSALLQDNIADAVACAKRVVRDPQGIRAWDAWRNRCQNRDVRQYVQGCGV | 70.4 | 103 | 120

Same assay, conditions: Homo sapiens; pH 3.34; Thermal; DSC; Gly-HCl 0.05 M; structure 1LZ1; whole UniProt chain shown

Variant | Tm [°C] | unfolding enthalpy (calorimetric) [kcal/mol] | unfolding enthalpy (van 't Hoff) [kcal/mol]
MKALIVLGLVLLSVTVQGKVFERCELARTLKRLGMDGYRGISLANWMCLAKWESGYNTRATNYNAGDRSTDYGIFQINSRYWCNDGKTPGAVNACHLSCSALLQDNIADAVACAKRVVRDPQGIRAWDAWRNRCQNRDVRQYVQGCGV | 75.5 | 108 | 125

Same assay, conditions: Homo sapiens; pH 2.61; Thermal; DSC; Gly-HCl 0.05 M; structure 1LZ1; whole UniProt chain shown

Variant | Tm [°C] | unfolding enthalpy (calorimetric) [kcal/mol] | unfolding enthalpy (van 't Hoff) [kcal/mol]
MKALIVLGLVLLSVTVQGKVFERCELARTLKRLGMDGYRGISLANWMCLAKWESGYNTRATNYNAGDRSTDYGIFQINSRYWCNDGKTPGASNACHLSCSALLQDNIADAVACAKRVVRDPQGIRAWVAWRNRCQNRDVRQYVQGCGV | 62.1 | 105 | 110

Same assay, conditions: Homo sapiens; pH 2.7; 64.9 °C; Thermal; DSC; Gly-HCl 0.05 M; structure 1LZ1; whole UniProt chain shown

Variant | ddG of mutation (higher = less stable) [kcal/mol] | heat capacity change of unfolding [kcal/mol/K] | unfolding enthalpy (calorimetric) [kcal/mol]
MKALIVLGLVLLSVTVQGKVFERCELARTLKRLGMDGYRGISLANWMCLAKWESGYNTRATNYNAGDRSTDYGIFQINSRYWCNDGKTPGASNACHLSCSALLQDNIADAVACAKRVVRDPQGIRAWVAWRNRCQNRDVRQYVQGCGV | 0.38 | 1.22 | 108
MKALIVLGLVLLSVTVQGKVFERCELARTLKRLGMDGYRGISLANWMCLAKWESGYNTRATNYNAGDRSTDYGIFQINSRYWCNDGKTPGANNACHLSCSALLQDNIADAVACAKRVVRDPQGIRAWVAWRNRCQNRDVRQYVQGCGV | 0.33 | 1.1 | 115

Same assay, conditions: Homo sapiens; pH 3.28; Thermal; DSC; Gly-HCl 0.05 M; structure 1LZ1; whole UniProt chain shown

Variant | Tm [°C] | unfolding enthalpy (calorimetric) [kcal/mol] | unfolding enthalpy (van 't Hoff) [kcal/mol]
MKALIVLGLVLLSVTVQGKVFERCELARTLKRLGMDGYRGISLANWMCLAKWESGYNTRATNYNAGDRSTDYGIFQINSRYWCNDGKTPGASNACHLSCSALLQDNIADAVACAKRVVRDPQGIRAWVAWRNRCQNRDVRQYVQGCGV | 72.2 | 117 | 122

Same assay, conditions: Homo sapiens; pH 2.65; Thermal; DSC; Gly-HCl 0.05 M; structure 1LZ1; whole UniProt chain shown

Variant | Tm [°C] | unfolding enthalpy (calorimetric) [kcal/mol] | unfolding enthalpy (van 't Hoff) [kcal/mol]
MKALIVLGLVLLSVTVQGKVFERCELARTLKRLGMDGYRGISLANWMCLAKWESGYNTRATNYNAGDRSTDYGIFQINSRYWCNDGKTPGANNACHLSCSALLQDNIADAVACAKRVVRDPQGIRAWVAWRNRCQNRDVRQYVQGCGV | 63 | 110 | 114
